Data: the RNAGym collection of RNA variant scans (doi:10.1073/pnas.2313332121)
Fewer inactive variants are shown than the library holds.

B1: TPR 5TU (parent)
chain: GGAUCUUCUCGAUCUAACAAAAAAGACAAAUCUGCCACAAAGCUUGAGAGCAUCUUCGGAUGCAGAGGCGGCAGCCUUCGGUGGCGCGAUAGCGCCAACGUUCUCAACUAUGACACGCAAAACGCGUGCUCCGUUGAAUGGAGUUUAUCAUG

Variants of: B1
Assay: polymerase ribozyme fitness, log enrichment relative to wild type (log ratio); higher = more active; in vitro selection for triplet polymerase activity
In short: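 Fitness compares each genotype's enrichment to that of the wild type on a logarithmic scale, averaging replicates with inverse-variance weights. The logarithm is base 2. Enrichment came from Illumina sequencing of input and output libraries after one triplicate round of in vitro selection, which included frozen incubation at −7 °C, of PCR-built, transcribed mutant libraries of each subunit of a heterodimeric triplet polymerase ribozyme. Only genotypes with ≥10 input reads and ≥1 read per output were kept.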

Variant | polymerase ribozyme fitness (log ratio)
A12U A28U A41U U53G U56G G84A A91G C93G G140U | ≤ -4.2
A12U G80U G84C A97G U134C | ≤ -4.2
A12U U56A | -0.683
U13G A29U C93U C129G | ≤ -4.2
A12U G92U | -1.64
A12U G92A | -1.81
A12U C14U G50C A60G G74U C85U | ≤ -4.2
A12U A26C C36U | -3.95
A12U U13A A52C C87A G94U U134A A138U | ≤ -4.2
U13A C38U A60C G83C | ≤ -4.2
A12U G71A A107C | ≤ -4.2
A12G U55G | -2
A12G U55A | 0.668
A12G C95U | 0.599
A12G G92C G133U | -3.59
U13A A91G C114U A120G | -4.09
U13A G62A A142G | -2.22
A12U U31C C32U A40U C57G A73G C75A G88A G152A | ≤ -4.2
A12G U151G | -4.06
A12U U55A C87U A119U U127C | -3.82
A12U C54U G59C A60G U144G | -0.245

Variant | polymerase ribozyme fitness (log ratio)
U13C G83C C96U C114U | -4.13
U13A G94C | -1.19
U13C C14G C43G A91G A106U U109G A138G | -4.06
U13A C76A U148G | ≤ -4.2
U13C C27U G50C G92C | -4.02
U13C C51G C54G C75U G83U | ≤ -4.2
A12G G84A G143A A147G | -3.25
U13C A21C | 0.934
U13C C93A | -2.64
U13C C87A | ≤ -4.2
U13A A73G G84A | -0.387
A12U U56G A91G | -2.61
U13C U56G A115G | -2.32
U13C C125A G136C U145C U146C | -3.59
A12G U45A A52U U55A C79G G81A A98G | ≤ -4.2
U13C G94A G141U | 0.369
U13A G84A G136U | -2.59
A12U A20U C54U A73G A91U C99U U146G | ≤ -4.2
A12G G74C | -3.9
A12G C93A | -2.26
A12G C93U | -1.21

Variant | polymerase ribozyme fitness (log ratio)
U13A C57U A73C C96G | ≤ -4.2
U13A A52G U82A | -0.721
A12G U55A G71A G80C | ≤ -4.2
U13C G59C U61G C79U G84A C132A | -4.17
U13C C18A A40C U53A G83A | -2.56
A12U U55G A142C | -1.46
U13G A26U C96G A120G | ≤ -4.2
A12U C54U G86C | -3.04
A12G G25C A122G G136A | -3.16
U13A C93A | -3.28
A12G G83A G126U U134C U148G | ≤ -4.2
A12U A41U G65C G70C C79U | ≤ -4.2
U13A A21C A73G C85G A89U | -2.11
U13A C38U G83C G140A | ≤ -4.2
U13C U90G C116A | -4.13
A12U U82C G86C | ≤ -4.2
U13C A20C G50C | -3.15
U13A U55A A89C G128U | -3.92
U13C A30U C36G C51U U55A C87A G126U | ≤ -4.2
U13C A40C G48C G50C G83U | ≤ -4.2
A12G G80C G81C C118U U135A | -1.66

Variant | polymerase ribozyme fitness (log ratio)
U13C C69A C87G A97U A147U | ≤ -4.2
A12U A28U U102A U139G U148G | -4.1
U13C C27A A49C U56A A97U | ≤ -4.2
A12U C38G G50A A66C | ≤ -4.2
U13C C32A A49C | ≤ -4.2
A12U G58A | -0.217
A12U C54U U134A U145G | -3.56
A12G U61A C76A A106G | -3.97
A12U G141C | -0.54
U13C C14U U77G G84U U145G U148A | ≤ -4.2
U13A C14A A60G C93U | -2.5
U13C C93A C96A | -3.63
A12U A26C C35A U55C G59C C76A C93A U111C A138G U144A | ≤ -4.2
A12U C87U A97U | -0.917
U13A C57G C96A | -1.81
A12U A19G U82C G83A A119U | -4.07
A12U A21C G70C G84U C132A G136A A142U | ≤ -4.2
U13A A26U C76U U146A | -3.35
U13C A16U | -0.079
U13A U61A C85U | -2.01
